Experimental data as given in the supplement of paper PMC12764529.
± gives the half width of the 95% confidence interval.

experiment: folding stability dG unfold from chymotrypsin proteolysis; higher = more stable
Summary of the method: (§1)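 Mini-proteins designed to be under 80 residues and free of cysteine were carried in a PA-tagged cDNA display construct and digested with trypsin and with chymotrypsin. Each protease was applied at 11 threefold-diluted concentrations, alongside a no-protease condition, before sequencing. K50 came from Bayesian fitting of the sequencing counts, and unfolding free energy was obtained by comparing it with a sequence-predicted unfolded-state K50 and a shared folded-state K50, for each protease separately or for both together. Designs were retained only if their AlphaFold2 dimer inter-PAE exceeded 15.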

Row | Sequence | folding stability dG unfold [kcal/mol]
1 | SAGGMVKTITKPMPLEELEKVYEEAKEAIEAGYEVIFTYPLPDGTTITIKTDYETKKIVEIKTSKPVSSAGG [r13_873_JUSTAS] | 1.09 ± 0.059
2 | SAGGSAGGSIKPGEEVTINFLVPPGNIPEFANELMKQDGIKDIEVKYQPFPNWYMVDITIRVKSAGGSAGGS [r12_993_TrROS] | -0.0266 ± 0.14
3 | SAGGSAGGSAGGSPLPGQPPEVILIKLDKPVKVGQTITLPDGYKLEVNEETGYLLIVKTSAGGSAGGSAGGS [r4_78_TrROS_Hall] | 0.992 ± 0.081
4 | SSSAEIRAYRFPDFWLVEIDLRDGDKLVGTAVFPNDGSVSLEEVAEAFRAAHPDFDVEISAIEPVPPPPPSA [r9_364_TrMRF] | 2.08 ± 0.063
5 | SAPSPSVPLDPVTTETVLVKDPEKGEEITLEILTDANSDEVLVRITYPDGSEVVLRLKKEEVEKVIEALSAG [r14_240_JUSTAS] | 3.08 ± 0.11
6 | SANVRRREIRIPAKDMPPNQIRDALRDLGFPPSKIENLDIERHKGNMITVKIYWTFENGQKQKIELHIPSAG [r14_30_TrROS] | 1.29 ± 0.21
7 | SAGEFEVLEVREVDGRLVVRLALPDKPEVVTIVLERHPDGSVRALIEAEGEAADRIVEALPELDEVVVASAG [r5_933_TrMRF] | 2.64 ± 0.11
8 | SAGGSAGGSAGGPEIELLEDVKPGEFVVIKVKLKDADGNEVTATFVFYNGEWYLTKIEPSAGGSAGGSAGGS [r10_288_TrROS_Hall] | 4.73 ± 0.063
9 | SAGGSAGGSAPVFTSPEEAEKYAREKLLREKPESHPDLVVNVNVTVTTEPDGTITIEIDYKESAGGSAGGSA [r18_440_JUSTAS] | 1.72 ± 0.086
10 | SSSPSGLSVTSSTVTKVETDPGPGNVTTVTVTTLNNSVLIIPLPGKPLVIPTNTTVETTYTVPPDDPSPASA [r9_531_JUSTAS] | 0.87 ± 0.11
11 | SAGGSKERTYRVLIRNPDGELEEIEVSEEELEALLSLPPSATVRIVTEDGEEKTVTINVEKVELKESAGGSA [r2_222_TrROS_Hall] | 3.48 ± 0.067
12 | SAGGSAGGSVEKLKKALEKLGIKVENVKIEVKTNKNGKKTVTIYVNGKKLSKEEIKKALKEIKSAGGSAGGS [r12_175_TrROS_Hall] | 4.46 ± 0.33
13 | SAGGSAGGSMTPANVVRIEPSPDGILRVTLTHPDGTVTTVEVSPDNLDIGAPDNVTDVTLAPVSAGGSAGGS [r20_194_TrMRF] | 1.72 ± 0.023
14 | SAGGDVTIEWFPMSEEEMKKMMEEMPPNTIMIPFPGNGYFIPVRVPDDPEEADKIAEEIRKWLEQLPSAGGS [r16_311_TrROS] | 1.44 ± 0.024
15 | SAGGSAGGSAGGVPPGAPELRLKVTVTVTTVELDEDTNELTTTTETVTVEVTVKVGETLSAGGSAGGSAGGS [r10_133_TrROS_Hall] | 1.17 ± 0.09
16 | SVKIKINWQRDPEDGRLYLMIEYRFEDDPQQAIEEIKDILERFGFKVPEIESITVDPGNGEITIPIRIPWSA [r9_876_TrROS] | 2.62 ± 0.11

experiment: folding stability dG unfold (combined trypsin and chymotrypsin); higher = more stable
Summary of the method: as §1

Row | Sequence | folding stability dG unfold [kcal/mol]
17 | SAGGSAGGSAGSMTTTTTIVKLPNGTLVLETPTVTTTTFPETGTTTTTTTVTVTVLPGLSSAGGSAGGSAGG [r11_1008_JUSTAS] | 1.89 ± 0.065
18 | SAGMKPGETIKNAKIRITYPNGEKKELKIDDVVKIVEIDEEKGVITIELKNGEKIEIKLPPGAKIEIEPSAG [r5_762_TrROS_Hall] | 3.2 ± 0.58
19 | SAGGSAGGSAGGKKIKILVKIKDLKKLKGLKPGDLALIEIEVEVKPEKKTEKKYTYKKKSAGGSAGGSAGGS [r10_1233_TrROS_Hall] | 0.693 ± 0.21
20 | SMGVKIEIDKEIIEKAIEEGKTFEADAKIKIEAYNPKTGKKIAEAEKIVKIRLEIEPPKAEPDPETGKPESA [r9_396_TrMRF] | 0.633 ± 0.13
21 | SAGMTIVIGAPPELSLEEAVEKAIEAVEALFPDKLKPGSKIKVIVRVYDPETGSVDEVTVEIDVPPGALSAG [r5_916_TrMRF] | 2.65 ± 0.1
22 | SAGGSAGGSAGGSSMSISVLEVRELPNGTLEITTVDYNPDNGYTTTTTYTLPPGQPLLISAGGSAGGSAGGS [r4_133_JUSTAS] | 1.74 ± 0.068
23 | SASSSMSSSSTSRTVPTPEGPVSITITFYPSTGKYTATITDPATSTATTVPSPGSSVEEAIAEAIALLASAG [r14_65_JUSTAS] | 2.21 ± 0.088
24 | SAGEIAEYIAEYLAQEPGFQDVEVNIKITDIEPPPNGYMYHKIDIHVRVRNPDDGKPREVNFDITFPMPSAG [r5_176_TrROS] | 1.7 ± 0.17
25 | SAGGSEKVKIEIPFRHPEDGEPIFPVRIEYEKPPNGDYKLDIEIDNFPPGMKPSPAAKDAIEEFIKSAGGSA [r2_7_TrROS] | 0.956 ± 0.19
26 | SAGSSSVTLFPEYTITTTTLPDGSRSVTINFTNPEEAKKLFEENPEIKELIEKFKKEGWDVKINAKNPSSAG [r14_873_JUSTAS] | 3.67 ± 0.22
27 | SAGGSAGGIKAPDGQEYHIILFPITIPMEQKVERPMPDGDPRPETRTVSIKIPIWFAIPPGQKISAGGSAGG [r6_526_TrROS] | 1.29 ± 0.13
28 | KLKFKVKIKNPKTNETVEVEVELNEDGTVTVKVNGKLIAKFKIVAKPKPKVETKKVKDANGNEKTYKKVKFS [r1_496_TrROS_Hall] | 1.91 ± 0.41
29 | SAGGSAGGSAGGGMAITTRPGSSEVSTTPVPSDVTASTTTPLASGEPVEVTYERVGDPTLSAGGSAGGSAGG [r7_21_JUSTAS] | 0.0781 ± 0.079
30 | SAGDFLKNLPPGIKRWRPVASDPDGHFVFVFKYKTPDRPRYMVIQFPPNGRIQDIHIFPPDEADKAVNKSAG [r5_73_TrROS] | 1.52 ± 0.25
31 | SAGGSAGGSKKVEVEILLLLPESTTEEEAKALAEELAEKIKEATPADDVEVKVVILKVPKNALSAGGSAGGS [r12_522_TrMRF] | 1.92 ± 0.21
32 | SAGGMVKTITKPMPLEELEKVYEEAKEAIEAGYEVIFTYPLPDGTTITIKTDYETKKIVEIKTSKPVSSAGG [r13_873_JUSTAS] | 0.687 ± 0.28

Row | Sequence | folding stability dG unfold [kcal/mol]
33 | SAGGSAGGSIKPGEEVTINFLVPPGNIPEFANELMKQDGIKDIEVKYQPFPNWYMVDITIRVKSAGGSAGGS [r12_993_TrROS] | 0.52 ± 0.096
34 | SAGGSAGGSAGGSPLPGQPPEVILIKLDKPVKVGQTITLPDGYKLEVNEETGYLLIVKTSAGGSAGGSAGGS [r4_78_TrROS_Hall] | 0.843 ± 0.051
35 | SSSAEIRAYRFPDFWLVEIDLRDGDKLVGTAVFPNDGSVSLEEVAEAFRAAHPDFDVEISAIEPVPPPPPSA [r9_364_TrMRF] | 2.01 ± 0.12
36 | SAPSPSVPLDPVTTETVLVKDPEKGEEITLEILTDANSDEVLVRITYPDGSEVVLRLKKEEVEKVIEALSAG [r14_240_JUSTAS] | 3.41 ± 0.12
37 | SANVRRREIRIPAKDMPPNQIRDALRDLGFPPSKIENLDIERHKGNMITVKIYWTFENGQKQKIELHIPSAG [r14_30_TrROS] | 1.11 ± 0.19
38 | SAGEFEVLEVREVDGRLVVRLALPDKPEVVTIVLERHPDGSVRALIEAEGEAADRIVEALPELDEVVVASAG [r5_933_TrMRF] | 2.46 ± 0.15
39 | SAGGSAGGSAGGPEIELLEDVKPGEFVVIKVKLKDADGNEVTATFVFYNGEWYLTKIEPSAGGSAGGSAGGS [r10_288_TrROS_Hall] | 4.54 ± 0.2
40 | SAGGSAGGSAPVFTSPEEAEKYAREKLLREKPESHPDLVVNVNVTVTTEPDGTITIEIDYKESAGGSAGGSA [r18_440_JUSTAS] | 1.29 ± 0.14
41 | SSSPSGLSVTSSTVTKVETDPGPGNVTTVTVTTLNNSVLIIPLPGKPLVIPTNTTVETTYTVPPDDPSPASA [r9_531_JUSTAS] | 1.15 ± 0.074
42 | SAGGSKERTYRVLIRNPDGELEEIEVSEEELEALLSLPPSATVRIVTEDGEEKTVTINVEKVELKESAGGSA [r2_222_TrROS_Hall] | 3.07 ± 0.17
43 | SAGGSAGGSVEKLKKALEKLGIKVENVKIEVKTNKNGKKTVTIYVNGKKLSKEEIKKALKEIKSAGGSAGGS [r12_175_TrROS_Hall] | 4.24 ± 0.44
44 | SAGGSAGGSMTPANVVRIEPSPDGILRVTLTHPDGTVTTVEVSPDNLDIGAPDNVTDVTLAPVSAGGSAGGS [r20_194_TrMRF] | 1.44 ± 0.028
45 | SAGGDVTIEWFPMSEEEMKKMMEEMPPNTIMIPFPGNGYFIPVRVPDDPEEADKIAEEIRKWLEQLPSAGGS [r16_311_TrROS] | 1.62 ± 0.063
46 | SAGGSAGGSAGGVPPGAPELRLKVTVTVTTVELDEDTNELTTTTETVTVEVTVKVGETLSAGGSAGGSAGGS [r10_133_TrROS_Hall] | 1.2 ± 0.18
47 | SVKIKINWQRDPEDGRLYLMIEYRFEDDPQQAIEEIKDILERFGFKVPEIESITVDPGNGEITIPIRIPWSA [r9_876_TrROS] | 2.66 ± 0.22
